Results on five proteins are retold here after PMC5111876 (Microbial Drug Resistance, 2016).

Where two headings read alike, the source gives them in different places.

Series [1] deals with the molecule itself. As to the kind of experiment: SEC.
Series [2] deals with the molecule itself. The experiment in a line: SEC-MALS.
Series [3] concerns the molecule itself. The experiment in a line: SEC-MALS. The source holds these as a separate data set.
Series [4] deals with the molecule itself. As to the kind of experiment: SEC. The source holds these as a separate data set.

B1: Bacillus subtilis GpsB T75D, full length (natural protein, B. subtilis, UniProt P0CI74 1-98, looked up)
chain: MLADKVKLSAKEILEKEFKTGVRGYKQEDVDKFLDMIIKDYETFHQEIEELQQENLQLKKQLEEASKKQPVQSNDTNFDILKRLSNLEKHVFGSKLYD
Consider B1, for which the binding result in the series “SEC [1]” was “binds”.

B2: Bacillus subtilis GpsB T75E, full length (natural protein, B. subtilis, UniProt P0CI74 1-98, looked up)
chain: MLADKVKLSAKEILEKEFKTGVRGYKQEDVDKFLDMIIKDYETFHQEIEELQQENLQLKKQLEEASKKQPVQSNETNFDILKRLSNLEKHVFGSKLYD
On to B2, for which the binding result in the series “SEC [1]” was “binds”.

B3: Listeria monocytogenes GpsB, full-length wild type (natural protein, L. monocytogenes, UniProt Q8Y614 1-113, looked up)
chain: MTSEQFEYHLTGKEILEKEFKTGLRGYSPEDVDEFLDMVIKDYSTFTQEIEALQAENIRLVQELDNAPLRTSTQPAPTFQAAAQPAGTTNFDILKRLSNLEKHVFGNKLDDNE
Turning to B3, in the series “SEC-MALS [2]”, the “stoichiometry N” value is 6.

B4: Listeria monocytogenes GpsB F91A F105A double mutant, full length (natural protein, L. monocytogenes, UniProt Q8Y614 1-113, looked up)
chain: MTSEQFEYHLTGKEILEKEFKTGLRGYSPEDVDEFLDMVIKDYSTFTQEIEALQAENIRLVQELDNAPLRTSTQPAPTFQAAAQPAGTTNADILKRLSNLEKHVAGNKLDDNE
Turning to B4, the “stoichiometry N” value in the series “SEC-MALS [3]” amounted to 3; in the series “SEC-MALS [2]”, 2.

B5: Listeria monocytogenes GpsB F91A, full length (natural protein, L. monocytogenes, UniProt Q8Y614 1-113, looked up)
chain: MTSEQFEYHLTGKEILEKEFKTGLRGYSPEDVDEFLDMVIKDYSTFTQEIEALQAENIRLVQELDNAPLRTSTQPAPTFQAAAQPAGTTNADILKRLSNLEKHVFGNKLDDNE
Consider B5, for which, in the series “SEC [4]”, the binding result was “binds”.
